Measured values: patent US20220008520A1, “METHODS AND MATERIALS FOR REDUCING AGE-RELATED STRIATED MUSCLE AND COGNITIVE DECLINE” (University of Pittsburgh - Of the Commonwealth System of …, priority 2018, published 2022)

Tests used:
MPCs [1] = assay: Seahorse XFe96 analysis of MPC bioenergetics (basal OCR, reserve capacity); format: cell-based, mice; conditions: aged MPCs, recombinant α-Klotho in culture for 48 hours, 0.05μg/mL
Description: In light of the loss of mitochondrial ultrastructural resulting from decreased α-Klotho expression, we next evaluated whether loss of α-Klotho drives MPC mitochondrial dysfunction. The bioenergetic profiles of young and aged MPCs were studied using a Seahorse XFe96 Flux analyzer, which measures oxygen consumption rate (OCR), a measure of oxidative phosphorylation. OCR was measured again after injection of oligomycin, FCCP, 2-deoxyglucose (2-DG), and rotenone. […] When young MPCs were treated with siRNA to α-Klotho, basal OCR was reduced to ˜25% values of scramble-treated counterparts (FIG. 4C, FIG. 14). MPCs isolated from uninjured Kl+/− mice display a similarly blunted bioenergetic profile (FIG. 4D). […] Reserve capacity represents the spare bioenergetic capacity, is calculated as the difference between the basal and maximal OCR, and indicates the ability of a cell to respond to stress. […]
(§1) Oxygen consumption rate (OCR) and extracellular acidification rate (ECAR) were measured in real time using a Seahorse XFe96 Extracellular Flux Analyzer (Billerica, Mass.) as described elsewhere (see, e.g., de Moura and Van Houten, 2014 Methods Mol Biol, 1105:589-602). The basal OCR was measured by averaging the OCR values before treating the cells with oligomycin. Total reserve capacity was calculated by the differences of OCR between treatment with FCCP and 2DG and basal values. […]

MPCs [2] = assay: qPCR-based analysis of mtDNA damage and mtDNA copy number in MPCs; format: cell-based, mice; conditions: aged MPCs, recombinant α-Klotho in culture for 48 hours, 0.05μg/mL
Description: mtDNA integrity was next examined in MPCs isolated from young or aged mice, using a qPCR-based assay. The method used is based on the principle that a wide variety of types of DNA damage have the propensity to block DNA polymerase progression (see, e.g., Furda et al., 2012 DNA Repair (Amst), 11:684-92). Therefore, this assay detects numerous kinds of base DNA damage or DNA repair intermediates such as abasic sites, as well as single and double DNA strand breaks.
MPCs were treated with 25 nmol of silencing RNA (siRNA) to α-Klotho (GE Dharmacon, Product no.SO2462181G) for 48 hours. As a control, young MPCs were treated with a non-targeting (scramble) siRNA. […]
as §1, with “values. Mitochondrial DNA damage was quantified as described elsewhere (see, e.g., Sanders et al., 2014 Toxicol Sci, 142:395-402; and Sanders et al., 2014 Neurobiol Dis, 62:381-6).” for “values.”

OGG1 and APE1 = assay: LXRepair multiplex DNA base excision repair enzyme activities in MPCs; format: cell-based, mice; conditions: siRNA-treated MPCs from young animals, 48 hours of α-Klotho supplementation
Description: LXRepair multiplex technology (see, e.g., Garreau-Balandier et al., 2014 FEBS Lett, 588:1673-9; and Sauvaigo et al., 2004 Anal Biochem, 333:182-92) was used to evaluate the DNA base excision repair (BER) enzyme activities of OGG1 and APE1, which work on two common oxidative DNA lesions, 8-oxodG and abasic sites, respectively.
MPCs were treated with 25 nmol of silencing RNA (siRNA) to α-Klotho (GE Dharmacon, Product no.SO2462181G) for 48 hours. As a control, young MPCs were treated with a non-targeting (scramble) siRNA. Aged MPCs were treated with 0.05μg/mL exogenous α-Klotho (R & D systems, Product no. aa 34-981), added to the culture media for 48 hours.

aged mice = assay: Cardiotoxin TA muscle injury in aged mice, α-Klotho supplementation in vivo; conditions: for functional recovery (wire hang test, in situ contractile testing) / myofiber area / number of regenerating fibers: daily i.p. 10 μg/kg
Description: Wild-type male C57BL/6 young, Kl+/− mice, or old mice received injuries to bilateral Tibialis Anterior (TA) muscles via an intramuscular injection of cardiotoxin (10 μL of 1 mg/mL). Fourteen days following the injury, TAs were harvested for histological analysis of α-Klotho, fibrosis (picrosirius red), degenerating myofibers (IgG) and myofiber regeneration (laminin). Second Harmonic Generation (SHG) imaging was performed on isolated TA muscles treated with a non-targeting control or lentiviral knockdown of α-Klotho, as well as pump-administered animals in order to visualize collagen and myofibers within the muscle 14 days post injury, as described elsewhere (see, e.g., Zhang et al., 2016 Stem Cells 34:732-742).
Strength endurance was tested using the hang-wire test as described elsewhere (see, e.g., Aartsma-Rus et al., J. Vis. Exp 85:51303 (2014)). The Hang Impulse (HI) score was calculated as bodyweight (grams)×time hung (seconds). Male mice were used for all testing using C57B1/6 mice. Wild type and Kl+/− were females for testing.
Mini osmotic pumps containing either saline or α-Klotho (324 pg/ml in saline vehicle) were inserted subcutaneously into aged mice. After 2 days, bilateral TA muscles were injured by intramuscular CTX injection (as above). Osmotic pumps remained implanted until euthanasia 14 days post injury. Isotonic saline or α-Klotho (10 μg/kg body weight) was administered to aged animals via daily intraperitoneal injections over days 1-3 post-injury or 3-5 days post-injury. The TAs were then harvested 14 days post injury and preserved for histology or SHG analysis. Blood serum was also collected to evaluate circulating α-Klotho levels via ELISA. The activity of α-Klotho was confirmed as described elsewhere (see, e.g., Shalhoub et al., 2011 Calcif Tissue Int, 89:140-50).

B1: α-Klotho: recombinant/exogenous α-Klotho protein (R & D systems, Product no. aa 34-981) (protein)
chain: AEPGQGAQTWARFARAPAPEAAGLLHDTFPDGFLWAVGSAAYQTEGGWRQHGKGASIWDTFTHHSGAAPSDSPIVVAPSGAPSPPLSSTGDVASDSYNNVYRDTEGLRELGVTHYRFSISWARVLPNGTAGTPNREGLRYYRRLLERLRELGVQPVVTLYHWDLPQRLQDTYGGWANRALADHFRDYAELCFRHFGGQVKYWITIDNPYVVAWHGYATGRLAPGVRGSSRLGYLVAHNLLLAHAKVWHLYNTSFRPTQGGRVSIALSSHWINPRRMTDYNIRECQKSLDFVLGWFAKPIFIDGDYPESMKNNLSSLLPDFTESEKRLIRGTADFFALSFGPTLSFQLLDPNMKFRQLESPNLRQLLSWIDLEYNHPPIFIVENGWFVSGTTKRDDAKYMYYLKKFIMETLKAIRLDGVDVIGYTAWSLMDGFEWHRGYSIRRGLFYVDFLSQDKELLPKSSALFYQKLIEDNGFPPLPENQPLEGTFPCDFAWGVVDNYVQVDTTLSQFTDPNVYLWDVHHSKRLIKVDGVVAKKRKPYCVDFSAIRPQITLLREMRVTHFRFSLDWALILPLGNQTQVNHTVLHFYRCMISELVHANITPVVALWQPAAPHQGLPHALAKHGAWENPHTALAFADYANLCFKELGHWVNLWITMNEPNTRNMTYRAGHHLLRAHALAWHLYDDKFRAAQKGKISIALQADWIEPACPFSQNDKEVAERVLEFDIGWLAEPIFGSGDYPRVMRDWLNQKNNFLLPYFTEDEKKLVRGSFDFLAVSHYTTILVDWEKEDPMKYNDYLEVQEMTDITWLNSPSQVAVVPWGLRKVLNWLRFKYGDLPMYVTANGIDDDPHAEQDSLRIYYIKNYVNEALKAYVLDDINLCGYFAYSLSDRSAPKSGFYRYAANQFEPKPSMKHYRKIIDSNGFLGSGTLGRFCPEEYTVCTECGFFQTRKSLLVFISFLVFTFIISLALIFHYSKKGQRSYK
OCR (MPCs [1]): increased OCR
reserve capacity (MPCs [1]): increased reserve capacity
mtDNA damage (MPCs [2]): decreased mtDNA damage
activity of BER enzymes (OGG1, APE1; 8-oxodG and abasic sites) (OGG1 and APE1): dramatically stimulated the activity of these BER enzymes
activity of BER enzymes (OGG1, APE1; 8-oxodG and abasic sites) (OGG1 and APE1; listed as Klotho): stimulated repair
functional recovery (wire hang test, in situ contractile testing) (aged mice; 1-3 dpi): only animals receiving α-Klotho over 3-5 dpi displayed an improved functional recovery
myofiber area (aged mice; 1-3 dpi): significant increase in myofiber area
number of regenerating fibers (aged mice; 1-3 dpi): significant increase in the number of regenerating fibers
functional recovery (wire hang test, in situ contractile testing) (aged mice; 3-5 dpi): improved functional recovery
myofiber area (aged mice; 3-5 dpi): significant increase in myofiber area
number of regenerating fibers (aged mice; 3-5 dpi): significant increase in the number of regenerating fibers
local α-Klotho within the injured muscle areas (aged mice; osmotic pump, 324 pg/ml, 14 dpi): significant increase in local α-Klotho
increase in the number of MyoD+ cells at the site of injury (aged mice; osmotic pump, 14 dpi): approximately 3.5 fold
number of regenerating fibers after injury (histology and SHG) (aged mice; osmotic pump, 14 dpi): increased number of regenerating fibers
myofiber cross sectional area (aged mice; osmotic pump, vs saline): no significant increase
total muscle area (aged mice; osmotic pump, vs saline): no significant increase
